The text below walks through data of US9931401B2, “Combination comprising anti-fibroblast growth factor receptor 2 (FGFR2) antibody and a tyrosine kinase inhibitor” (Daiichi Sankyo Company, Limited, priority 2013, dated 2018).

First the molecules themselves.
B1: FR2-10: anti-human FGFR2 rat monoclonal antibody obtained by the method described in Example 1; VH SEQ ID NO: 12, VL SEQ ID NO: 21 (antibody, listed as Rattus norvegicus, V domains shown)
VH: EVQLVESGGGLVQPGRSLKLSCVASGFRFNDFWMTWIRQAPGKGLEWVASITYTGDNTYYAGSVKGRITISRDNAKSTLYLQMNSLRSEDTATYYCTRDDYGGYSPYYMDAWGQGTSVTVSS
VL: DIQMTQSPSSLSAFLGDRVTITCRASQDIGNYLRWFQQKPGKSPRLMIYGATNLANGVPSRFSGSRSGSDYSLTINNLESEDMAIYYCLKHNEYPFTFGSGTKLEIKRA
B2: FR2-13: anti-human FGFR2 rat monoclonal antibody obtained by the method described in Example 1; VH SEQ ID NO: 14, VL SEQ ID NO: 24 (antibody, listed as Rattus norvegicus, V domains shown)
VH: QVKLLQSGAELVKPGASVKLSCKTSGFTFSTSYMSWLKQVPGPSIEWIGWIYAGDGGTKYNQKFKGKATLTVDKSSSTAYMDLSSLTSEDAAVYFCATDGYGDWFAYWGQGTLVTVSS
VL: DIQMTQSPASLSASLGETVTIECRASEDIYSNLAWYQQKPGNSPQLLIYDANILADGVPSRFSGSGSGTQYSLKINSLQSEDVASYFCQQYNNYPPFTFGVGTKLELKRA
B3: FR2-14: anti-human FGFR2 rat monoclonal antibody obtained by the method described in Example 1; VH SEQ ID NO: 16, VL SEQ ID NO: 26 (antibody, listed as Rattus norvegicus, V domains shown)
VH: B2 VH with I45T, S75F, A106T
VL: B2 VL with V101A

Where a chain is given by its changes, count along the chain named.

In the first test the target is T1, human FGFR2 (Homo sapiens, UniProt P21802).
T1 construct: expressed in transfected cells; host or cells: HEK293T cells
T1 sequence (P21802 22-822 isoform P21802-3): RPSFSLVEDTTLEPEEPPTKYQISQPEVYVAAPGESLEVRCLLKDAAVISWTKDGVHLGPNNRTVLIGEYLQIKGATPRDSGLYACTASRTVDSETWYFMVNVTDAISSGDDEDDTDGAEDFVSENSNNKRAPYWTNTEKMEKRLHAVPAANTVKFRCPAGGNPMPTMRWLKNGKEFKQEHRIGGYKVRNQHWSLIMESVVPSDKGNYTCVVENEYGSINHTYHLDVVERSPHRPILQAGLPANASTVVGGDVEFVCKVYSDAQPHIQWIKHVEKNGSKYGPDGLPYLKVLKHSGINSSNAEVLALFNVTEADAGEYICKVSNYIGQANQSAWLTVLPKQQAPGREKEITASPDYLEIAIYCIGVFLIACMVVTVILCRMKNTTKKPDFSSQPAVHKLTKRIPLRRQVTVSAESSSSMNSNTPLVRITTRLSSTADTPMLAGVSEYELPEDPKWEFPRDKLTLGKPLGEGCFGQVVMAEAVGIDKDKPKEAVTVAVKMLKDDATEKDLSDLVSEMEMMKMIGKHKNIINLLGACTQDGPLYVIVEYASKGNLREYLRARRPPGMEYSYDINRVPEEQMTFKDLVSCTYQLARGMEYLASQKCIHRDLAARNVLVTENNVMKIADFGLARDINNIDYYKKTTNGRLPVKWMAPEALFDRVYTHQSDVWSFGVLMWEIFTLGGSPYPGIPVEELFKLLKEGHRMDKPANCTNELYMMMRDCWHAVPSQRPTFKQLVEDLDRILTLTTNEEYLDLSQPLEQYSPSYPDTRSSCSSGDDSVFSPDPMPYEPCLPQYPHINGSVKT
Kind of test: Flow cytometry, selective binding to human FGFR expression vector-transfected HEK293T cells. The conditions noted are these: hybridoma culture supernatant, FGFR1 IIIc, FGFR2 IIIb, FGFR3 IIIb, FGFR4 transfectants. The protocol: HEK293T cells were inoculated at a density of 5×10^4 cells/cm^2 to a 225-cm^2 flask (manufactured by Sumitomo Bakelite Co., Ltd.) and cultured overnight at 37° C. under 5% CO2 conditions in a DMEM medium containing 10% FBS. On the next day, the pcDNA-DEST40-FGFR2 IIIb IgD1-deletion mutant deficient in the N-terminal IgD1 domain or a control pcDNA-DEST40 was transfected to the HEK293T cells using Lipofectamine 2000, and the cells were further cultured overnight at 37° C. under 5% CO2 conditions. On the next day, the expression vector-transfected HEK293T cells were treated with TrypLE Express (manufactured by Life Technologies Corp.), washed with DMEM containing 10% FBS, and then suspended in PBS containing 5% FBS. The obtained cell suspension was used in flow cytometry analysis.
cDNAs encoding a human FGFR1 IIIc variant protein (isoform 1: NP_075598), a human FGFR3 IIIb variant protein (isoform 3: NP_001156685), a human FGFR3 IIIc variant protein (isoform 1: NP_000133), and a human FGFR4 protein (isoform 1: NP_002002) were cloned into pcDNA-DEST40 vectors to construct vectors pcDNA-DEST40-FGFR1 IIIc, pcDNA-DEST40-FGFR3 IIIb, pcDNA-DEST40-FGFR3 IIIc, and pcDNA-DEST40-FGFR4 for expression of each variant protein, respectively.
Each human FGFR expression vector constructed in Examples 1)-3-1 and 2)-1-1 was transfected to HEK293T cells by the method shown in Example 1)-5-1. The cell suspension was centrifuged to remove the supernatant. Then, these various human FGFR expression vector-transfected HEK293T cells and the pcDNA-DEST40-transfected HEK293T cells were separately suspended by the addition of the hybridoma culture supernatant containing the FR2-10, FR2-13, or FR2-14 antibody and left standing at 4° C. for 1 hour. […] The data was analyzed using Flowjo (manufactured by Tree Star Inc.). After removal of 7-aminoactinomycin D-positive dead cells by gating, the FITC fluorescence intensity of live cells was plotted to a histogram to calculate average fluorescence intensity (MFI).
For orientation: In flow cytometry, cells or beads pass a laser one at a time.
In the case of B1, the “selective binding activity against human FGFR2” value is given as “selectively bind to human FGFR2 IIIb”.
Still for that read-out and setting: the same measure for B2: “selectively bind to both human FGFR2 IIIb and FGFR2 IIIc”; for B3: “selectively bind to both human FGFR2 IIIb and FGFR2 IIIc”.

In another test the target is T2, human FGFR2 IIIb (Homo sapiens, UniProt P21802).
T2 construct: expressed in transfected cells; host or cells: 293α cells (HEK293 stably transfected with integrin αv and β3)
T2 sequence (P21802 22-822 isoform P21802-3 limits assumed): as the sequence (P21802 22-822 isoform P21802-3) above
Kind of test: Elk1 luciferase reporter gene assay, FGFR2 IIIb-expressing 293α cells, ligand FGF7. Format: cell-based. The conditions noted are these: antibody preincubated 1 hour; FGF7 10 ng/ml, 6 hours. Here is the method: In order to evaluate the signal-neutralizing effect of the anti-FGFR2 antibody produced by each obtained hybridoma, an Elk1 luciferase reporter gene assay system for detecting ERK (extracellular signal-regulated kinase) activation induced by FGFR2 activation via ligand FGF7 stimulation was constructed by a method shown below and used in the evaluation of the obtained antibody for its effect.
The Elk1 luciferase reporter gene assay was carried out using each hybridoma culture supernatant selected in Example 1)-5. A cell line 293α, which was HEK293 cells stably transfected with integrin αv and integrin β3 expression vectors, was transiently cotransfected with pcDNA-DEST40-FGFR2 IIIb or pcDNA-DEST40, pFA2-Elk1 (manufactured by Stratagene Corp.), pFR-Luc2CP, and pGL4.74[hRluc/TK] (manufactured by Promega Corp.) according to transfection procedures using Lipofectamine 2000 (manufactured by Invitrogen Corp.), inoculated to a white 96-well cell culture plate (manufactured by Corning Inc.), and cultured overnight at 37° C. under 5% CO2 conditions. On the next day, the culture supernatant was removed, and the hybridoma culture supernatant diluted 5-fold with DMEM containing 5% FBS was added at a concentration of 50 μl/well to the plate. After culture at 37° C. for 1 hour under 5% CO2 conditions, a ligand human FGF7 (manufactured by R&D systems, Inc.) was added at a final concentration of 10 ng/ml to each well. After incubation for 6 hours, cell lysates were prepared and assayed for firefly luciferase activity (specific signal) and Renilla luciferase activity (signal for normalization) using Dual-luciferase reporter assay system (manufactured by Promega Corp.). The firefly/Renilla ratio was calculated to normalize data on each well.
In order to evaluate the signal-neutralizing effects of the obtained antibodies by the Elk1 luciferase reporter gene assay, 293α cells were cotransfected with pcDNA-DEST40-FGFR2 IIIb or pcDNA-DEST40-FGFR2 IIIc constructed in Example 1)-3-1, pFA2-Elk1 (manufactured by Stratagene Corp.), pFR-Luc2CP, and pGL4.74[hRluc/TK] (manufactured by Promega Corp.) by the method shown in Example 1)-6-2, and cultured overnight at 37° C. under 5% CO2 conditions. On the next day, the culture supernatant was removed, and the cells were then preincubated for 1 hour with the rat FR2-10, FR2-13, or FR2-14 antibody diluted with DMEM containing 2% FBS. Subsequently, a ligand human FGF7 (manufactured by R&D systems, Inc.) or human FGF9 (manufactured by PeproTech Inc.) was added at a final concentration of 10 ng/ml to each well. After incubation for 6 hours, firefly luciferase activity (specific signal) and Renilla luciferase activity (signal for normalization) were assayed using Dual-Glo Luciferase Assay System (manufactured by Promega Corp.). The firefly/Renilla ratio was calculated to normalize data on each well.
In order to evaluate the signal-neutralizing effects of the obtained antibodies by the Elk1 luciferase reporter gene assay, 293α cells were transfected with pcDNA-DEST40-FGFR2 IIIb or pcDNA-DEST40-FGFR2 IIIc constructed in Example 1)-3-1 by the method shown in Example 1)-6-2, and cultured overnight at 37° C. under 5% CO2 conditions. On the next day, the culture supernatant was removed, and the cells were then preincubated for 1 hour with the cFR2-10, cFR2-13, or cFR2-14 antibody (final concentration: 0.05 to 5 μg/ml) diluted with DMEM containing 2% FBS. Subsequently, a ligand human FGF7 (manufactured by R&D systems, Inc.) or human FGF9 (manufactured by PeproTech Inc.) was added at a final concentration of 10 ng/ml to each well. After incubation for 6 hours, cell lysates were prepared and assayed for firefly luciferase activity (specific signal) and Renilla luciferase activity (signal for normalization) using Dual-luciferase reporter assay system (manufactured by Promega Corp.). The firefly/Renilla ratio was calculated to normalize data on each well. […]
Consider B1, for which the “ligand FGF7 dependent reporter activation in the FGFR2 IIIb-expressing cells” value is reported as “inhibited”.
On the same count and under the same terms, the same measure for B2: “inhibited”; for B3: “inhibited”.

Still in this test, the particulars now being: hybridoma culture supernatant diluted 5-fold; FGF7 10 ng/ml.
As to B1, the “ligand FGF7 dependent reporter activation in FGFR2-expressing HEK293 reporter cells (screening)” value is “reduced ligand FGF7 dependent reporter activation to a ligand-free level”.
The same measure, in the same setting: the same measure for B2: “reduced ligand FGF7 dependent reporter activation to a ligand-free level”.
Consider B3, for which the “ligand FGF7 dependent reporter activation in FGFR2-expressing HEK293 reporter cells (screening)” value is “reduced ligand FGF7 dependent reporter activation to a ligand-free level”.
